Legend:
[1] = system: human dermal microvascular endothelial cells; test: Endothelial cell migration assay (modified Boyden chamber), human dermal microvascular endothelial cells; type: cell-based; settings: 10 ng/ml bFGF plus PEDF; FIG. 1
Procedure: (§1) The cells were plated on gelatinized Nucleopore membranes (5 μm pores for bovine capillary cells and 8 μm pores for other cells) in an inverted modified Boyden chamber. After two hours, the chamber was reinverted and test substances added to the top wells of each. Specifically, populations were exposed to either culture medium alone (control), 10 ng/ml bFGF, 2 nM PEDF (full length PEDF), or both 10 ng/ml bFGF (basic fibroblast growth factor) and 10 nM PEDF. The cells were then permitted to migrate for 3-4 hours. Following this, the membranes were fixed and stained, and the number of cells that had migrated were counted.
Additional truncated peptides derived from PEDF were tested for efficacy in the endothelial cell migration assay using human dermal microvascular endothelial cells (Clonetics, Cell Systems) at passage 9 in a modified Boyden Chamber, as described above, and the results are shown in FIG. 7. In FIG. 7A, the cells were exposed to the gradient of VEGF in the presence of purified recombinant PEDF (rPEDF), bacterially produced PEDF (BH) or PEDF peptides containing only amino acid residues 78-121 (44-mer) and 44-77 (34-mer) referring to SEQ ID NO:1. Neutralizing antibodies were added where shown to verify if the anti-angiogenic effect is specific to PEDF peptides and not due to contamination. Both full length PEDF preparations were used at 25 nM, neutralizing polyclonal antiserum against PEDF was used at 1:200 dilution, recombinant human VEGF (R&D Systems) at 200 pg/ml. In FIG. 7B, the cells were exposed to the gradient of VEGF in the presence of increasing concentrations of 34-mer and 44-mer peptides. The antiserum used in this experiment was not affinity purified, whereas the antiserum used in all other experiments presented herein was affinity purified.

[2] = system: endothelial cells isolated from human umbilical chords; test: Endothelial cell migration assay, endothelial cells from human umbilical chords; type: cell-based; settings: 10 ng/ml bFGF plus PEDF; FIG. 1
Procedure: The migration of different vascular endothelial cell types was determined by adding PEDF to cultured endothelial cells, specifically, endothelial cells isolated from bovine adrenal capillaries, human umbilical chords, and human dermal microvascular tissue.
as §1

[3] = system: WI-38 fibroblasts, human foreskin fibroblasts, vascular smooth muscle cells, human neutrophils; test: Migration assay with non-endothelial cells; type: cell-based; settings: PEDF 0.01 nM to about 50 nM; inducers IL-8 or PDGF; FIGS. 2A-2D
Procedure: The ability of PEDF to prevent migration of fibroblasts or smooth muscle was tested using cells obtained from human diploid fibroblast cell line WI-38, human foreskin fibroblasts, vascular smooth muscle, and normal human neutrophils.
The assay was performed as indicated in Example 1, except that the dose of PEDF varied from 0.01 nM to about 50 nM and that the migration assay was performed without inverting the chambers. Moreover, the inducer of migration varied with the cell type (IL-8 was used at 1 μg/ml and PDGF was used at 250 pg/ml).

[4] = system: capillary endothelial cells; test: bFGF-induced proliferation of capillary endothelial cells; type: cell-based; settings: PEDF doses of 1.0 nM or greater
Excerpt: Human PEDF cDNA was engineered by polymerase chain reaction to encode a COOH-terminal hexahistidine tag, cloned into pCEP4 (Invitrogen, Carlsbad, Calif.), and transfected into human embryonic kidney cells. Recombinant PEDF was purified from the conditioned media with the Xpress Protein Purification System (Invitrogen, Carlsbad, Calif.).

[5] = system: skin of athymic (nude/nude) mice; test: Hair follicle density in skin of athymic nude mice after PEDF injection; type: in vivo, mouse; settings: 2 μg purified PEDF daily for four days into tumors; FIG. 8
Procedure: FIG. 8, comprising FIGS. 8A, 8B and 8C, is a series of images of photomicrographs of sections of skin obtained from animals treated with PEDF, wherein hair follicles are depicted. Human neuroblastoma tumors growing subcutaneously in nude mice were injected at 2-3 sites/tumor for four consecutive days with 2 μg of purified PEDF. On the fifth day, hair was noticed growing over the treated tumors. […] Similar increases in hair follicle density have been seen in the absence of tumors following injection of purified PEDF.
The treatment consisted of injecting a total of 2 μg of purified histidine-tagged PEDF in a volume of 100 μl of phosphate buffered saline into 2-3 sites/tumor each day for 4 consecutive days. On the fifth day, a small area of increased hair growth was noticed over the injection sites. The mice were euthanized using an overdose of metaphane, and the tumors were surgically removed. Tumor tissue was sliced and placed in buffered formalin for at least 24 hours. Tissue was embedded in paraffin and prepared for histologic examination. The skin overlying neuroblastoma tumors treated with PEDF had increased hair follicle density when compared with the skin overlying tumors injected with saline vehicle (FIG. 8). Similar increases in hair follicle density have been seen in the absence of tumors following injection of purified PEDF.

[6] = system: SK-N-BE(2) and SK-N-SH neuroblastoma cells; test: Differentiation of cultured human neuroblastoma cells (neurite outgrowth); type: cell-based; settings: in vitro, 24 hours, purified histidine tagged PEDF; FIGS. 9, 10
Procedure: In vitro experiments were conducted to verify the effect of PEDF on cell lines derived from neuroblastoma tumors. Two neuroblastoma derived cell lines were obtained from the American Tissue Type and Culture, SK-N-BE(2) and SK-N-SH. Both cell lines were maintained in culture in DMEM containing 10% fetal bovine serum (Flow Laboratories, McLean, Va.) in 37° C. and 5% CO2. Cells (1.25×10^4/ml) were resuspended, and 1 ml/well was used to seed 24 well plates. Twenty-four hours later, PEDF was added to triplicate wells at […] , 0.75, 1 or 10 nM, and the cells were incubated for an additional 24 hours. The percentage of differentiated cells was determined by counting the total number of cells in three non-overlapping 1 mm^2 areas per well.

[7] = system: SK-N-BE(2) tumors; test: Differentiation of human neuroblastoma tumors in athymic mice (neurofilament staining); type: in vivo, mouse; settings: 2 μg PEDF per day intratumoral, 4 days
Procedure: In vivo experiments were conducted to determine the effect of PEDF on neuroblastoma tumors. […] When the tumors grew to a palpable size (approximately 8 mm in diameter) PEDF treatment was started. A total of 2 μg of purified histidine-tagged PEDF in a volume of 100 μl of phosphate buffered saline was injected into 2-3 sites/tumor each day for 4 consecutive days. On the fifth day, the mice were euthanized by an overdose of metaphane, and the tumors were surgically removed. Tumor tissue was sliced and placed in buffered formalin for at least 24 hours. Tissue was embedded in paraffin and prepared for histologic examination. Sections were stained with an antibody that recognized neurofilament protein (Dako, Carpinteria, Calif.). […] A total of six SK-N-BE(2) tumors were treated with PEDF and 6/6 were moderately to strongly positive for neurofilament staining.

B1: PEDF: full length pigment epithelium derived growth factor, SEQ ID NO:1; purified from WERI-Rb-27R medium or recombinant histidine-tagged (protein, listed as Homo Sapiens)
chain: MQALVLLLCIGALLGHSSCQNPASPPEEGSPDPDSTGALVEEEDPFFKVPVNKLAAAVSNFGYDLYRVRSSMSPTTNVLLSPLSVATALSALSLGADERTESIIHRALYYDLISSPDIHGTYKELLDTVTAPQKNLKSASRIVFEKKLRIKSSFVAPLEKSYGTRPRVLTGNPRLDLQEINNWVQAQMKGKLARSTKEIPDEISILLLGVAHFKGQWVTKFDSRKTSLEDFYLDEERTVRVPMMSDPKAVLRYGLDSDLSCKIAQLPLTGSMSIIFFLPLKVTQNLTLIEESLTSEFIHDIDRELKTVQAVLTVPKLKLSYEGEVTKSLQEMKLQSLFDSPDFSKITGKPIKLTQVEHRAGFEWNEDGAGTTPSPGLQPAHLTFPLDYHLNQPFIFVLRDTDTGALLFIGKILDPRGP
migration, percentage of maximal migration [1]: considerably less migration was observed | migration, percentage of maximal migration [2]: considerably less migration was observed | inhibition of migration of non-endothelial cells [3]: did not inhibit the migration | inhibition of bFGF-induced proliferation [4]: 40% | density of hair follicles compared with vehicle-treated skin [5]: three-fold increased density of hair follicles | differentiation of neuroblastoma cells [6]: triggered differentiation of the cells | tumors moderately to strongly positive for neurofilament staining / tumors treated [7]: 6/6

Reference: patent US6919309B2, “Methods and compositions for inhibiting angiogenesis” (Northwestern University, priority 1997, dated 2005)
